Measured values published in publication PMC2559947.
Where “and” joins values, the source holds several entries; their conditions need not be identical. Identical values can stand only once.

Assays:
[1] = target: C326A pea porphobilinogen synthase (pea (Pisum sativum)); experiment: native gel or EMSA
[2] = target: C326A pea porphobilinogen synthase (pea (Pisum sativum)); experiment: AUC
[3] = target: C326A pea porphobilinogen synthase (pea (Pisum sativum)); experiment: AUC; remark: listed apart in the source
[4] = target: C326A pea porphobilinogen synthase (pea (Pisum sativum)); experiment: AUC; remark: listed apart in the source

C326A pea porphobilinogen synthase (enzyme)
stoichiometry N [1]: 8
stoichiometry N [2]: 8
stoichiometry N [3]: 6 and 8
stoichiometry N [4]: 8 and 6
